Experimental data: US8889621B2, “Inhibiting binding of FGF23 to the binary FGFR-Klotho complex for the treatment of hypophosphatemia” (New York University, priority 2009, dated 2014)
“Also recorded” adds a separate entry of the source.

Legend:
[1] = target: T1, binary FGFR1c-Klotho complex (UniProt O35082+P11362); experiment: SPR competition: FGFR1c-Klotho binding to immobilized FGF23^28-251; parameters: species or system human FGFR1c, murine Klotho; details: FGF21^168-209 at molar ratios of 6:1 and 10:1
T1 construct: The ectodomain of murine Klotho (A35 to K982) was purified from culture media; FLAG (C); made in house; host or cells: E. coli (FGFR1c, FGF23); HEK293 (Klotho ectodomain)
T1 sequence (P11362 142-365): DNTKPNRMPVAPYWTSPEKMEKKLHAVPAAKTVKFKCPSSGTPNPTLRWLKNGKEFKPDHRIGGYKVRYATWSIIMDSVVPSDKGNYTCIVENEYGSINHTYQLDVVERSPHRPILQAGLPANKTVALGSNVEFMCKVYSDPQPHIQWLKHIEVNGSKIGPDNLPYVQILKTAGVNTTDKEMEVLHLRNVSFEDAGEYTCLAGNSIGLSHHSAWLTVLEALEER
T1 sequence (O35082 35-982): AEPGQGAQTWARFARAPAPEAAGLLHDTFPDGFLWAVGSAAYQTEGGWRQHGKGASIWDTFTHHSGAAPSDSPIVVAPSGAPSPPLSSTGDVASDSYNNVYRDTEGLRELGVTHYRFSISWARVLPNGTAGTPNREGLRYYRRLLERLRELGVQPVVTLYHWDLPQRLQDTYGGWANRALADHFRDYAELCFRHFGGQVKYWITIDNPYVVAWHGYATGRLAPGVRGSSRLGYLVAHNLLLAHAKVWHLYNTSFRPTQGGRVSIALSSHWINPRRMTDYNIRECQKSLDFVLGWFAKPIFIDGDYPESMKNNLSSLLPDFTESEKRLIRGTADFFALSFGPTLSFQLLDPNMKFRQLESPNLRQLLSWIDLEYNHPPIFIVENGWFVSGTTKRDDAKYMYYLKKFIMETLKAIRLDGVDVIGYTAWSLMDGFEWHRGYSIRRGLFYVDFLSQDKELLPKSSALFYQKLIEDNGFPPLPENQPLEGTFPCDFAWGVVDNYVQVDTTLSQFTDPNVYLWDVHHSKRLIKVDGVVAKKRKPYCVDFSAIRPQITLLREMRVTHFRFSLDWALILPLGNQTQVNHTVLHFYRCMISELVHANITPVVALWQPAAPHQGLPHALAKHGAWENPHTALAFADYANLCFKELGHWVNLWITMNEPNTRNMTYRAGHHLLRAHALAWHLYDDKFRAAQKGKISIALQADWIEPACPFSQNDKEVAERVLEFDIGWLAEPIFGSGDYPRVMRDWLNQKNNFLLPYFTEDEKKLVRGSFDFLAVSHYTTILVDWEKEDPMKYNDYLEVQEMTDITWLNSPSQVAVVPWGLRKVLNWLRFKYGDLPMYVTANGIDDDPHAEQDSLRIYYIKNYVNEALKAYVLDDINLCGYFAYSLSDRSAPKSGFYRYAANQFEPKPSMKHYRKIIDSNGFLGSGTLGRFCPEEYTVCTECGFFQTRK
Procedure: A variety of interaction or binding assays can be used to determine that an agent specifically binds the binary FGFR-Klotho complex, such as the SPR interaction analysis described below. One aspect of the present invention utilizes SPR analysis of FGF23 protein/peptide binding to the binary FGFR-Klotho complex. The SPR analysis involved FGF23 protein/peptide immobilization by amine coupling on flow channels of a chip. Proteins were injected over the chip at a flow rate of 50 μl min^−1, and at the end of each protein injection (180 s), HBS-EP buffer (10 mM HEPES-NaOH, pH 7.4, 150 mM NaCl, 3 mM EDTA, 0.005% (v/v) polysorbate 20; 50 μl min^−1) was flowed over the chip to monitor dissociation for 180 s. The chip surface was then regenerated by injecting 50 μl of 2.0 M NaCl in 10 mM sodium acetate, pH 4.5. […] For each protein injection over a FGF23 protein/peptide chip, the nonspecific responses from the FHF1B control flow channel were subtracted from the responses recorded for the flow channel onto which FGF23 protein/peptide was immobilized. To analyze FGF23 binding to the binary FGFR1c-Klotho complex, FGF23^28-251 was coupled to a chip, and increasing concentrations of 1:1 complex of the ectodomains of FGFR1c and Klotho in HBS-EP buffer were passed over the chip. To measure binding of the C-terminal tail of FGF23 to the binary FGFR1c-Klotho complex, FGF23^180-251 was immobilized on a chip, and increasing concentrations of 1:1 complex of the ectodomains of FGFR1c and Klotho in HBS-EP buffer were passed over the chip. To examine whether the C-terminal tail of FGF23 can compete with full-length FGF23 for binding to the binary FGFR1c-Klotho complex, FGF23^28-251 was immobilized on a chip. Increasing concentrations of FGF23^180-251 were mixed with a fixed concentration of 1:1 complex of the ectodomains of FGFR1c and Klotho in HBS-EP buffer, and the mixtures were passed over the chip. As a control, competition of FGF23 in solution with immobilized FGF23 for binding to the binary FGFR1c-Klotho complex was studied. Increasing concentrations of FGF23^28-251 were mixed with a fixed concentration of 1:1 complex of the ectodomains of FGFR1c and Klotho in HBS-EP buffer, and the mixtures were passed over the FGF23 chip. Competition of the FGF23 C-terminal tail peptide with full-length FGF23 for binding to the binary FGFR1c-Klotho complex was also studied using the “reverse” SPR assay format, where FGF23^180-251 was immobilized on a chip and mixtures of a fixed concentration of 1:1 complex of the ectodomains of FGFR1c and Klotho with increasing concentrations of FGF23^28-251 were passed over the chip. As a control, competition of FGF23 C-terminal tail peptide in solution with immobilized FGF23 C-terminal tail peptide for binding to the binary FGFR1c-Klotho complex was analyzed. Increasing concentrations of FGF23^180-251 were mixed with a fixed concentration of 1:1 complex of the ectodomains of FGFR1c and Klotho in HBS-EP buffer, and the mixtures were passed over the FGF23^180-251 chip. To verify the specificity of the interaction between the FGF23 C-terminal tail and the FGFR1c-Klotho complex, FGF23^28-251 was immobilized on a chip. Increasing concentrations of FGF21^168-209 were mixed with a fixed concentration of 1:1 complex of the ectodomains of FGFR1c and Klotho in HBS-EP buffer, and the mixtures were passed over the chip. In addition, the ability of the FGF23 C-terminal tail peptide to interfere with binary complex formation between βKlotho and either FGF19 or FGF21 was tested, as was its ability to interfere with ternary complex formation between βKlotho, FGFR, and either FGF19 or FGF21. FGF19^23-216 and FGF21^29-209 were immobilized on two flow channels of a chip. FGF23^180-251 and the ectodomain of βKlotho were mixed at a molar ratio of 2:1, and the mixture was injected over the chip. Next, FGF23^180-251 and the 1:1 complex of the ectodomains of FGFR1c and βKlotho were mixed at a molar ratio of 10:1, and the mixture was passed over the FGF19/FGF21 chip. […]

FGFR1c = target: T2, FGFR1c (Homo sapiens, UniProt P11362); experiment: SPR: FGFR1c ectodomain passed over immobilized Klotho ectodomain; type: binding; details: 25° C., HBS-EP buffer, read-out: dissociation constant (KD) of the FGFR1c-Klotho interaction
T2 construct: made in house; host or cells: E. coli
T2 sequence (P11362 142-365): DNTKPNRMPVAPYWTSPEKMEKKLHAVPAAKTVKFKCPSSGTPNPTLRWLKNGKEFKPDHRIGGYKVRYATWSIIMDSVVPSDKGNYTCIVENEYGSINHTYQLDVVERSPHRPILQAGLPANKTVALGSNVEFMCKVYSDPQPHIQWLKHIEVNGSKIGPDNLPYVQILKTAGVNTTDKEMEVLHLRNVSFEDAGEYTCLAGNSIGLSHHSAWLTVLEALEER
Procedure: Surface plasmon resonance (SPR) spectroscopy experiments were performed on a Biacore 2000 instrument (Biacore AB), and FGF23-FGFR1c-Klotho interactions were studied at 25° C. in HBS-EP buffer (10 mM HEPES-NaOH, pH 7.4, 150 mM NaCl, 3 mM EDTA, 0.005% (v/v) polysorbate 20). Proteins were immobilized by amine coupling on flow channels of research grade CM5 chips (Biacore AB). Proteins were injected over a CM5 chip at a flow rate of 50 μl min^−1, and at the end of each protein injection (180 s), HBS-EP buffer (50 μl min^−1) was flowed over the chip to monitor dissociation for 180 s. The chip surface was then regenerated by injecting 50 μl of 2.0 M NaCl in 10 mM sodium acetate, pH 4.5. […] For each protein injection over a Klotho chip, the nonspecific responses from the β-glucuronidase control flow channel were subtracted from the responses recorded for the Klotho flow channel. Similarly, for each protein injection over a FGF chip, the nonspecific responses from the FHF1B control flow channel were subtracted from the responses recorded for the FGF flow channel. […]
To analyze Klotho binding to FGFR1c, Klotho ectodomain was immobilized on a chip (˜29-35 fmole/mm^2 of flow channel). […] Maximal equilibrium responses were plotted against the concentrations of FGFR1c ectodomain (FIG. 1B), and from the fitted saturation binding curve the equilibrium dissociation constant (KD) was calculated. […]

Row | Molecule | inhibition of FGFR1c-Klotho binding to immobilized FGF23^28-251 [1] | Kd (FGFR1c) [nM]
1 | FGF21^168-209: 42-amino acid long C-terminal tail of FGF21 (P168 to S209), expressed in E. coli (PGLPPALPEPPGILAPQPPDVGSSDPLSMVGPSQGRSPSYAS; left off: small tags and cut ends) [reference compound] | failed to inhibit; also recorded: no inhibition | 
2 | Klotho: ectodomain of murine Klotho (A35 to K982) purified from HEK293 culture media (protein, left off: small tags and cut ends, ectodomain of murine Klotho (A35 to K982) purified from HEK293 culture media) AEPGQGAQTWARFARAPAPEAAGLLHDTFPDGFLWAVGSAAYQTEGGWRQHGKGASIWDTFTHHSGAAPSDSPIVVAPSGAPSPPLSSTGDVASDSYNNVYRDTEGLRELGVTHYRFSISWARVLPNGTAGTPNREGLRYYRRLLERLRELGVQPVVTLYHWDLPQRLQDTYGGWANRALADHFRDYAELCFRHFGGQVKYWITIDNPYVVAWHGYATGRLAPGVRGSSRLGYLVAHNLLLAHAKVWHLYNTSFRPTQGGRVSIALSSHWINPRRMTDYNIRECQKSLDFVLGWFAKPIFIDGDYPESMKNNLSSLLPDFTESEKRLIRGTADFFALSFGPTLSFQLLDPNMKFRQLESPNLRQLLSWIDLEYNHPPIFIVENGWFVSGTTKRDDAKYMYYLKKFIMETLKAIRLDGVDVIGYTAWSLMDGFEWHRGYSIRRGLFYVDFLSQDKELLPKSSALFYQKLIEDNGFPPLPENQPLEGTFPCDFAWGVVDNYVQVDTTLSQFTDPNVYLWDVHHSKRLIKVDGVVAKKRKPYCVDFSAIRPQITLLREMRVTHFRFSLDWALILPLGNQTQVNHTVLHFYRCMISELVHANITPVVALWQPAAPHQGLPHALAKHGAWENPHTALAFADYANLCFKELGHWVNLWITMNEPNTRNMTYRAGHHLLRAHALAWHLYDDKFRAAQKGKISIALQADWIEPACPFSQNDKEVAERVLEFDIGWLAEPIFGSGDYPRVMRDWLNQKNNFLLPYFTEDEKKLVRGSFDFLAVSHYTTILVDWEKEDPMKYNDYLEVQEMTDITWLNSPSQVAVVPWGLRKVLNWLRFKYGDLPMYVTANGIDDDPHAEQDSLRIYYIKNYVNEALKAYVLDDINLCGYFAYSLSDRSAPKSGFYRYAANQFEPKPSMKHYRKIIDSNGFLGSGTLGRFCPEEYTVCTECGFFQTRK |  | 72
